# Publication PMC6404586
# What was measured:
# C3d (human) [1] = target: C3d (human) (UniProt P01024); experiment: SEC; CIP and C3d loaded separately or mixed in equimolar concentration onto a Superdex column; MW from a calibration curve
# C3b (human) = C3b (human) (UniProt P01024); experiment: ELISA; 100 ng of C3, C3b or C3d coated; increasing concentrations of CIP; anti-CIP antibody; apparent Kd as reciprocal of fitted Ka
# C3d (human) [2] = target: C3d (human) (UniProt P01024); experiment: as above
# complement C3 (human) = experiment: as above
# C3d (human) [3] = target: C3d (human) (UniProt P01024); experiment: SPR; BIAcore X100; C3d covalently immobilised on CM5 chip (250 response units); CIP 0.0390-5 μM flowed; PBS with 0.005% Tween 20; 22°C; 1:1 Langmuir model; apparent Kd
# Sequence of UniProt P01024 (P01024 1002-1303): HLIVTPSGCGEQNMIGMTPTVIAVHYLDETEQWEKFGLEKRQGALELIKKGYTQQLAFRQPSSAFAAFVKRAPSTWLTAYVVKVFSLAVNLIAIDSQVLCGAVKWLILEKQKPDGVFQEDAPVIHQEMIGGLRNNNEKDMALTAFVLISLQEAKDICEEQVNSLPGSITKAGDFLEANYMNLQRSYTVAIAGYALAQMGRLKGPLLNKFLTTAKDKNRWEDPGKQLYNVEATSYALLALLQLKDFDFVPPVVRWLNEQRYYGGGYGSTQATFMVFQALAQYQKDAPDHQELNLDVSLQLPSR
substance,measurement,setting,value
complement interfering protein (CIP) (natural protein),stoichiometry N,C3d (human) [1],1
same,Kd,C3b (human),82.4 nM
same,Kd,C3d (human) [2],76 nM
same,Kd,complement C3 (human),84.8 nM
same,Kd,C3d (human) [3],79 nM
same,koff,C3d (human) [3],0.00085 s⁻¹
same,kon,C3d (human) [3],10800 M⁻¹ s⁻¹
